# Data: patent publication US4532212A, “Process for the dissolution of peptides in non-aqueous and mixed non-aqueous/aqueous systems” (Shell Oil Company, priority 1983, dated 1985)
# “Also recorded” adds a separate entry of the source.
# Experiments:
# Assay type in all cases: physicochemical
# [1] = Dissolution of peptides/proteins in organic solvents using crown ethers and cryptands; settings: in words
# Protocol: ^(a) Protein concentration was in the range 0.05-0.8 mM depending on
# protein (i.e. cytochrome c, concentration was 0.8 mM, whereas, myoglobin
# concentrtion was 0.1 mM). In a typical experiment, small portions of CE
# (ca 2.0 mg, 7.6 × 10^-3 mmoles) were added to a suspension of
# protein/peptide (5 mg) in methanol (2 ml) at 4-25° C. with stirrin
# until the suspension dissolved.
# [2] = Protein separation with crown ether/methanol: iso-electric focusing of fractions; settings: 18-crown-6 in methanol
# Protocol: Thus mixtures of cytochrome c and α-chymotrypsin (10 mg each, 8.1×10^-4 and 4×10^-4 m.mole, respectively) were treated with 18-crown-6 (28 mg, 0.11 m.mole) in methanol (2 ml). The red solution was filtered from undissolved protein (α-chymotrypsin) and dialysed against water, then buffer (Tris, pH 7.5, 0.10 M). Both filtrate and filtered protein fractions were examined using isoelectric focusing in order to establish the purity of the separations (results shown in Table 2).
# Mixtures of cytochrome c, BSA and α-chymotrypsin (10 mg each, 8,1×10^-4, 1.4×10^-4 and 4×10^-4 m.mole respectively) were treated with 18-crown-6 (50 mg, 0.19 m.mole) in methanol (2 ml) and the resulting red solution was filtered and then dialysed against water then buffer (Tris, pH 7.5, 0.01 M) to remove crown ether and methanol.
# [3] = Protein crystallisation from methanol/18-crown-6/(NH4)2SO4; settings: crystalline composite from methanol/18-crown-6/(NH4)2SO4
# Protocol: The solubilised protein solutions were stored at 4° C. within an outer tube containing ethyl acetate as precipitating co-solvent.
# [4] = mixture cytochrome c + BSA + α-chymotrypsin
Substance,Solubility in methanol with crown ether [1],"Iso-electric focusing results, pHI [2, 4]","Iso-electric focusing results, pHI ([2]; mixture cytochrome c + α-chymotrypsin)",Circular dichroism / UV/visible spectroscopy of crystalline material (protein integrity) [3]
"Cytochrome c: Cytochrome c from horse heart (Type III, from Sigma Chemical Co.), 104 residues",readily dissolves; also recorded: dissolves in methanol at a lower crown ether concentration than BSA,9.35,9.35,intact protein present
"Bovine serum albumin (BSA): bovine serum albumin, 513 amino acid residues as printed",–,5.5-6.0,–,–
